This passage reports koff and Kd results from publication PMC7956748 (2021).

In assay [1] the target is T1, transforming growth factor-beta 1 (TGF-β1) (UniProt P01137 279-390). Put plainly: SPR. A general note: Surface plasmon resonance follows binding to a sensor surface in real time, without labels.
Assay [2] addresses T1, transforming growth factor-beta 1 …. Put plainly: SPR. This is another data set of the same source.

T1 sequence (P01137 279-390): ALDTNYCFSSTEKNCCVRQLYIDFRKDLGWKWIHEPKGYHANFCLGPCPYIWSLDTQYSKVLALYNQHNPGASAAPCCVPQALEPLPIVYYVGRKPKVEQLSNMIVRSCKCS

B1: thrombospondin-4 (TSP-4), recombinant full-length rat (natural protein)
chain: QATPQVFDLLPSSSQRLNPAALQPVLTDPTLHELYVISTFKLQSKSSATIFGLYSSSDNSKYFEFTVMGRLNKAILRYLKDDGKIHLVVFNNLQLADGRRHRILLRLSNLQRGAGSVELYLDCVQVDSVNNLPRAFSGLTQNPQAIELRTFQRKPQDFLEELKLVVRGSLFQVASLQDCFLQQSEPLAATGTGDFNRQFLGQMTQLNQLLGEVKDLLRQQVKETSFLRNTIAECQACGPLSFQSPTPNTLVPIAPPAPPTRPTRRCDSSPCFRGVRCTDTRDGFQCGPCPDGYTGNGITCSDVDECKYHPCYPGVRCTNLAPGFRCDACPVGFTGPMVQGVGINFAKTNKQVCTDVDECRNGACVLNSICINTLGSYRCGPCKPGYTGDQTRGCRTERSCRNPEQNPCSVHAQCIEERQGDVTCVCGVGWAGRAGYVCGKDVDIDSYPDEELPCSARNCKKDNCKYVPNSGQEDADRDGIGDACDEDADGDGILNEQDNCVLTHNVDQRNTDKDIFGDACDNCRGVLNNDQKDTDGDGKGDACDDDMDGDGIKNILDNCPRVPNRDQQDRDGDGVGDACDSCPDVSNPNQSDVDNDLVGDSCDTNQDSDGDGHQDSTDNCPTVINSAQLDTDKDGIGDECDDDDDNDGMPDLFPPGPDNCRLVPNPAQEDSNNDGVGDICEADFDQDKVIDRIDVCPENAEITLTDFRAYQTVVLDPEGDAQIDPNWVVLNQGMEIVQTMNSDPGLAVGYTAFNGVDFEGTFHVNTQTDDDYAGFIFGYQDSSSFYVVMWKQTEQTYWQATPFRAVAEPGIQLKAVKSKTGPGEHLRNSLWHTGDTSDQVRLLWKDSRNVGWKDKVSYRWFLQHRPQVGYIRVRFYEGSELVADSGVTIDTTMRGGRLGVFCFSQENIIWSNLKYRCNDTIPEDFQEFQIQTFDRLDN
In assay [1], B1 returned a koff of 0.000889 s⁻¹. The molecule further gave a Kd in assay [2] of 6.3 nM.

B2: cartilage oligomeric matrix protein (COMP), recombinant full-length rat (natural protein)
chain: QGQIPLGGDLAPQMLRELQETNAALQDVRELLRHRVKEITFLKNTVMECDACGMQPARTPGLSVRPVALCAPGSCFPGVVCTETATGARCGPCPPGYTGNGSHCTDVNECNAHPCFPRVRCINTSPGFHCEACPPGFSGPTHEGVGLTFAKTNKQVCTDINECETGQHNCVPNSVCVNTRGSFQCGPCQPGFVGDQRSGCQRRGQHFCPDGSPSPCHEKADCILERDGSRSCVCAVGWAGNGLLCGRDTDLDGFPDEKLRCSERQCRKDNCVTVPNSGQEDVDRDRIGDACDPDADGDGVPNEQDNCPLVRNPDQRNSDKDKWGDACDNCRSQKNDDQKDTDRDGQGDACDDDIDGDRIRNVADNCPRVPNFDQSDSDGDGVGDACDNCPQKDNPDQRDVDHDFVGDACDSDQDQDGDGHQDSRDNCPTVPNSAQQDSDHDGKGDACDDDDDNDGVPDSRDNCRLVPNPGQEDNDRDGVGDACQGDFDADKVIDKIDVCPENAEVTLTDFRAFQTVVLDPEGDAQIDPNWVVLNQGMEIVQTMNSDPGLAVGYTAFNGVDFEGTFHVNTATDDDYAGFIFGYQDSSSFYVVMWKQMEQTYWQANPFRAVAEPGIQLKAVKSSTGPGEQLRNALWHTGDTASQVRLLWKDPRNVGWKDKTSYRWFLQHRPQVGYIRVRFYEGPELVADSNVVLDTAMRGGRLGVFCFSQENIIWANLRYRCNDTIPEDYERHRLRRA
B2 displayed a koff in assay [1] of 0.000392 s⁻¹. This molecule also gave a Kd in assay [2] of 22.9 nM.

By koff is commonly meant a measure of how fast the partners let go of each other. Lower therefore signals slow dissociation. By Kd is commonly meant the constant that tells how readily two partners part at equilibrium. A low value points to higher affinity.
